In the supplement of paper PMC5998384:

Columns and labels:
HeLa Kyoto [1] = experiment: solubility in G1/S (NP-40 vs SDS abundance) (log2 ratio); higher = more soluble; conditions: cell cycle stage: G1/S
HeLa Kyoto [2] = experiment: melting temperature (median over replicates), in situ; higher = more thermally stable
HeLa Kyoto [3] = experiment: solubility change mitosis vs G1/S (difference of NP-40 vs SDS log2 ratios) (log2 ratio difference); higher = more soluble in mitosis
HeLa Kyoto [4] = experiment: thermal stability score vs G1/S (z-score of summed log2 fold changes over temperatures); higher = more thermally stable than in G1/S
[5] = cell cycle stage: early G1 (4.5 h after nocodazole release)
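Throughout, for melting temperature (median over replicates), in situ: HeLa Kyoto cells synchronized by double thymidine or nocodazole block, proteins quantified by TMT10plex mass spectrometry, three independent biological replicates.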
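Throughout, for solubility change mitosis vs G1/S (difference of NP-40 vs SDS log2 ratios): synchronized HeLa Kyoto cells (double thymidine block for G1/S, nocodazole release for mitosis), protein amounts in NP-40 versus SDS lysates quantified by mass spectrometry, three biological replicates.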
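Throughout, for solubility in G1/S (NP-40 vs SDS abundance): HeLa Kyoto cells arrested at G1/S by double thymidine block, proteins quantified by TMT10plex mass spectrometry in mild NP-40 versus SDS extracts, three biological replicates.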
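Throughout, for thermal stability score vs G1/S (z-score of summed log2 fold changes over temperatures): synchronized HeLa Kyoto cells, proteins quantified by TMT10plex mass spectrometry, three biological replicates, mitosis taken 0.5 h after nocodazole release, G1/S directly after double thymidine block.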

Sequence	solubility in G1/S (log2) (HeLa Kyoto [1])	melting temperature (HeLa Kyoto [2]; cell cycle stage: G1/S)	melting temperature (HeLa Kyoto [2]; cell cycle stage: mitosis)	solubility change mitosis (log2) (HeLa Kyoto [3])	thermal stability score (HeLa Kyoto [4]; [5])	thermal stability score (HeLa Kyoto [4]; cell cycle stage: mitosis)
MSQPPPPPPPLPPPPPPPEAPQTPSSLASAAASGGLLKRRDRRILSGSCPDPKCQARLFFPASGSVSIECTECGQRHEQQQLLGVEEVTDPDVVLHNLLRNALLGVTGAPKKNTELVKVMGLSNYHCKLLSPILARYGMDKQTGRAKLLRDMNQGELFDCALLGDRAFLIEPEHVNTVGYGKDRSGSLLYLHDTLEDIKRANKSQECLIPVHVDGDGHCLVHAVSRALVGRELFWHALRENLKQHFQQHLARYQALFHDFIDAAEWEDIINECDPLFVPPEGVPLGLRNIHIFGLANVLHRPIILLDSLSGMRSSGDYSATFLPGLIPAEKCTGKDGHLNKPICIAWSSSGRNHYIPLVGIKGAALPKLPMNLLPKAWGVPQDLIKKYIKLEEDGGCVIGGDRSLQDKYLLRLVAAMEEVFMDKHGIHPSLVADVHQYFYRRTGVIGVQPEEVTAAAKKAVMDNRLHKCLLCGALSELHVPPEWLAPGGKLYNLAKSTHGQLRTDKNYSFPLNNLVCSYDSVKDVLVPDYGMSNLTACNWCHGTSVRKVRGDGSIVYLDGDRTNSRSTGGKCGCGFKHFWDGKEYDNLPEAFPITLEWGGRVVRETVYWFQYESDSSLNSNVYDVAMKLVTKHFPGEFGSEILVQKVVHTILHQTAKKNPDDYTPVNIDGAHAQRVGDVQGQESESQLPTKIILTGQKTKTLHKEELNMSKTERTIQQNITEQASVMQKRKTEKLKQEQKGQPRTVSPSTIRDGPSSAPATPTKAPYSPTTSKEKKIRITTNDGRQSMVTLKSSTTFFELQESIAREFNIPPYLQCIRYGFPPKELMPPQAGMEKEPVPLQHGDRITIEILKSKAEGGQSAAAHSAHTVKQEDIAVTGKLSSKELQEQAEKEMYSLCLLATLMGEDVWSYAKGLPHMFQQGGVFYSIMKKTMGMADGKHCTFPHLPGKTFVYNASEDRLELCVDAAGHFPIGPDVEDLVKEAVSQVRAEATTRSRESSPSHGLLKLGSGGVVKKKSEQLHNVTAFQGKGHSLGTASGNPHLDPRARETSVVRKHNTGTDFSNSSTKTEPSVFTASSSNSELIRIAPGVVTMRDGRQLDPDLVEAQRKKLQEMVSSIQASMDRHLRDQSTEQSPSDLPQRKTEVVSSSAKSGSLQTGLPESFPLTGGTENLNTETTDGCVADALGAAFATRSKAQRGNSVEELEEMDSQDAEMTNTTEPMDHS [VCPIP1]	-0.111	48.3 °C	48.8 °C	-0.0432	1.21	1.02
MAGGMKVAVSPAVGPGPWGSGVGGGGTVRLLLILSGCLVYGTAETDVNVVMLQESQVCEKRASQQFCYTNVLIPKWHDIWTRIQIRVNSSRLVRVTQVENEEKLKELEQFSIWNFFSSFLKEKLNDTYVNVGLYSTKTCLKVEIIEKDTKYSVIVIRRFDPKLFLVFLLGLMLFFCGDLLSRSQIFYYSTGMTVGIVASLLIIIFILSKFMPKKSPIYVILVGGWSFSLYLIQLVFKNLQEIWRCYWQYLLSYVLTVGFMSFAVCYKYGPLENERSINLLTWTLQLMGLCFMYSGIQIPHIALAIIIIALCTKNLEHPIQWLYITCRKVCKGAEKPVPPRLLTEEEYRIQGEVETRKALEELREFCNSPDCSAWKTVSRIQSPKRFADFVEGSSHLTPNEVSVHEQEYGLGSIIAQDEIYEEASSEEEDSYSRCPAITQNNFLT [NEMP1]	0.0297	53.8 °C	54.5 °C	0.0939	1.73	6.13
MAAVDSFYLLYREIARSCNCYMEALALVGAWYTARKSITVICDFYSLIRLHFIPRLGSRADLIKQYGRWAVVSGATDGIGKAYAEELASRGLNIILISRNEEKLQVVAKDIADTYKVETDIIVADFSSGREIYLPIREALKDKDVGILVNNVGVFYPYPQYFTQLSEDKLWDIINVNIAAASLMVHVVLPGMVERKKGAIVTISSGSCCKPTPQLAAFSASKAYLDHFSRALQYEYASKGIFVQSLIPFYVATSMTAPSNFLHRCSWLVPSPKVYAHHAVSTLGISKRTTGYWSHSIQFLFAQYMPEWLWVWGANILNRSLRKEALSCTA [HSDL1]	-0.127	57.5 °C	54.3 °C	-0.155	-1.62	-2.08
MPALSTGSGSDTGLYELLAALPAQLQPHVDSQEDLTFLWDMFGEKSLHSLVKIHEKLHYYEKQSPVPILHGAAALADDLAEELQNKPLNSEIRELLKLLSKPNVKALLSVHDTVAQKNYDPVLPPMPEDIDDEEDSVKIIRLVKNREPLGATIKKDEQTGAIIVARIMRGGAADRSGLIHVGDELREVNGIPVEDKRPEEIIQILAQSQGAITFKIIPGSKEETPSKEGKMFIKALFDYNPNEDKAIPCKEAGLSFKKGDILQIMSQDDATWWQAKHEADANPRAGLIPSKHFQERRLALRRPEILVQPLKVSNRKSSGFRKSFRLSRKDKKTNKSMYECKKSDQYDTADVPTYEEVTPYRRQTNEKYRLVVLVGPVGVGLNELKRKLLISDTQHYGVTVPHTTRARRSQESDGVEYIFISKHLFETDVQNNKFIEYGEYKNNYYGTSIDSVRSVLAKNKVCLLDVQPHTVKHLRTLEFKPYVIFIKPPSIERLRETRKNAKIISSRDDQGAAKPFTEEDFQEMIKSAQIMESQYGHLFDKIIINDDLTVAFNELKTTFDKLETETHWVPVSWLHS [MPP7]	-0.0584	47.8 °C	48.5 °C	0.00867	0.55	1.76
MAQRKNAKSSGNSSSSGSGSGSTSAGSSSPGARRETKHGGHKNGRKGGLSGTSFFTWFMVIALLGVWTSVAVVWFDLVDYEEVLGKLGIYDADGDGDFDVDDAKVLLGLKERSTSEPAVPPEEAEPHTEPEEQVPVEAEPQNIEDEAKEQIQSLLHEMVHAEHVEGEDLQQEDGPTGEPQQEDDEFLMATDVDDRFETLEPEVSHEETEHSYHVEETVSQDCNQDMEEMMSEQENPDSSEPVVEDERLHHDTDDVTYQVYEEQAVYEPLENEGIEITEVTAPPEDNPVEDSQVIVEEVSIFPVEEQQEVPPETNRKTDDPEQKAKVKKKKPKLLNKFDKTIKAELDAAEKLRKRGKIEEAVNAFKELVRKYPQSPRARYGKAQCEDDLAEKRRSNEVLRGAIETYQEVASLPDVPADLLKLSLKRRSDRQQFLGHMRGSLLTLQRLVQLFPNDTSLKNDLGVGYLLIGDNDNAKKVYEEVLSVTPNDGFAKVHYGFILKAQNKIAESIPYLKEGIESGDPGTDDGRFYFHLGDAMQRVGNKEAYKWYELGHKRGHFASVWQRSLYNVNGLKAQPWWTPKETGYTELVKSLERNWKLIRDEGLAVMDKAKGLFLPEDENLREKGDWSQFTLWQQGRRNENACKGAPKTCTLLEKFPETTGCRRGQIKYSIMHPGTHVWPHTGPTNCRLRMHLGLVIPKEGCKIRCANETKTWEEGKVLIFDDSFEHEVWQDASSFRLIFIVDVWHPELTPQQRRSLPAI [ASPH]	-0.00862	54.2 °C	53.5 °C	0.0282	1.63	2.03
